Where no end group is shown, it is not given here.
Experiments:
Format in all cases: physicochemical
[1] = Gelation of peptide solutions after saline buffer treatment, time sweep; conditions: saline buffer (0.15 M of NaCl); IEIK13 1.5%, KLD12 1.5%, PuraMatrix® 2.5% solution
Method: The effect of salt ionic strength level surrounding peptide solution on the properties of peptide solutions was evaluated to identify the possibility of peptide gelation when the peptide solution is placed into the environment where salt ionic strength level is high. […] Without pH effect, the effect of saline treatment on gelation of peptide solutions were evaluated. […] This is because IEIK13 is much more sensitive to salt ionic strength levels. Fast gelation of IEIK13 at the salt ionic strength level similar to body fluid isotonic salt level may generally improve its function and gelation speed for various clinical applications. The results are shown in FIG. 19 for IEIK13, KLD12 and PuraMatrix® solutions. Time sweep tests were performed at 1 rad/sec and at 1 Pa with 20 mm plates and 500 μm gap distance. […]

[2] = Appearance of 1.5% peptide solutions with various salts at room temperature; conditions: for Appearance: KLD12 solution, room temperature
Method: The effect of salt ionic strength level on the properties of peptide solutions was evaluated to identify optimized salt ionic strength levels for the peptides as described herein. Increasing the salt ionic strength level of PuraMatrix® and other peptides may generally improve its function and mechanical strength for various clinical applications. To adjust the salt ionic strength of the peptide solutions by way of example, various salt buffer solutions including NaCl, KCl, MgCl2, CaCl2 and DPBS (10×) were added to 2 mL of 1.5% peptide solutions.

[3] = Rheological properties of pH adjusted peptide solutions and hydrogels; conditions: KLD12 1%, IEIK13 1%, PuraMatrix® 1% and 2.5%
Method: Based on the visual observation of the effect of pH level on the properties of the peptide solutions, the effect on the rheological properties of the peptide solutions after adjusting their pH level to 3.4 (PuraMatrix® and KLD12) or 3.7 (IEIK13) was evaluated. If the pH levels of peptide solutions are higher than 3.5 (PuraMatrix® and KLD12) or 3.7 (IEIK13), the peptide solution began phase separation becoming cloudy. The rheological properties of PuraMatrix®, KLD12 and IEIK13 solutions were higher at pH 3.4. The results are shown in FIG. 2 for KLD12 1%, FIG. 3 for IEIK13 1%, and FIGS. 4-5 for PuraMatrix® 1% and 2.5%, respectively. Stress sweep tests were performed at 10 rad/s. Frequency sweep tests were performed at 1 Pa.
Based on the results of the effect on the rheological properties of the peptide solutions after adjusting their pH level to 3.4 (PuraMatrix® and KLD12) or 3.7 (IEIK13), the effect on the rheological properties of the peptide solutions at various pH levels was evaluated. […] The rheological properties of peptides were evaluated at various concentrations using a rheometer (DHR-1, TA Instruments) with 20 mm plates. The results are shown in FIG. 6A for PuraMatrix® 2.5% solution and FIG. 6B for IEIK13 1.5% solution, respectively. Frequency sweep tests were performed from 1 rad/sec to 10 rad/sec at 1 Pa and the storage modulus at 1 rad/sec was selected for data.
Based on the results of the effect on the rheological properties of the peptide solutions after adjusting their pH level, the effect on the rheological properties of the peptide hydrogels at various pH after DMEM treatment was evaluated and compared to the effect on the rheological properties of the peptide solutions at various pH before DMEM treatment. […] The results are shown in FIGS. 7A-7B for PuraMatrix® and FIGS. 8A-8B for IEIK (SEQ ID NO: 5), respectively. Frequency sweep tests were performed from 1 rad/sec to 10 rad/sec at 1 Pa and the storage modulus at 1 rad/sec was selected for data.

Sequence: KLDLKLDLKLDL [KLD12]
- gelation after saline buffer treatment [1]: no or negligible gelation
- Appearance ([2]; conc. 1.3%, KCl 0.4 M, ionic strength 0.4 M): Cloudy, phase-separated
- Appearance ([2]; conc. 1.3%, NaCl 0.4 M, ionic strength 0.4 M): Cloudy, phase-separated
- Appearance ([2]; conc. 1.32%, KCl 0.35 M, ionic strength 0.35 M): Slightly cloudy, brittle gel
- Appearance ([2]; conc. 1.32%, NaCl 0.35 M, ionic strength 0.35 M): Slightly cloudy, brittle gel
- Appearance ([2]; conc. 1.35%, KCl 0.3 M, ionic strength 0.3 M): Slightly cloudy, thick, stiffer gel
- Appearance ([2]; conc. 1.35%, NaCl 0.3 M, ionic strength 0.3 M): Slightly cloudy, thick, stiffer gel
- Appearance ([2]; conc. 1.38%, KCl 0.25 M, ionic strength 0.25 M): Clear, thick, stiffer gel
- Appearance ([2]; conc. 1.38%, NaCl 0.25 M, ionic strength 0.25 M): Clear, thick, stiffer gel
- Appearance ([2]; conc. 1.4%, KCl 0.2 M, ionic strength 0.2 M): Clear, thick, stiffer gel
- Appearance ([2]; conc. 1.4%, NaCl 0.2 M, ionic strength 0.2 M): Clear, thick, stiffer gel
- Appearance ([2]; conc. 1.42%, CaCl2 0.167 M, ionic strength 0.5 M): Cloudy, phase-separated
- Appearance ([2]; conc. 1.42%, MgCl2 0.167 M, ionic strength 0.5 M): Cloudy, phase-separated
- Appearance ([2]; conc. 1.43%, CaCl2 0.133 M, ionic strength 0.4 M): Slightly cloudy, thick, stiffer gel
- Appearance ([2]; conc. 1.43%, CaCl2 0.15 M, ionic strength 0.45 M): Slightly cloudy, brittle gel
- Appearance ([2]; conc. 1.43%, KCl 0.15 M, ionic strength 0.15 M): Clear, thick, stiffer gel
- Appearance ([2]; conc. 1.43%, MgCl2 0.133 M, ionic strength 0.4 M): Slightly cloudy, thick, stiffer gel
- Appearance ([2]; conc. 1.43%, MgCl2 0.15 M, ionic strength 0.45 M): Slightly cloudy, brittle gel
- Appearance ([2]; conc. 1.43%, NaCl 0.15 M, ionic strength 0.15 M): Clear, thick, stiffer gel
- Appearance ([2]; conc. 1.44%, CaCl2 0.117 M, ionic strength 0.35 M): Clear, thick, stiffer gel
- Appearance ([2]; conc. 1.44%, MgCl2 0.117 M, ionic strength 0.35 M): Clear, thick, stiffer gel
- Appearance ([2]; conc. 1.45%, CaCl2 0.1 M, ionic strength 0.3 M): Clear, thick, stiffer gel
- Appearance ([2]; conc. 1.45%, KCl 0.1 M, ionic strength 0.1 M): Clear, thick, stiffer gel
- Appearance ([2]; conc. 1.45%, MgCl2 0.1 M, ionic strength 0.3 M): Clear, thick, stiffer gel
- Appearance ([2]; conc. 1.45%, NaCl 0.1 M, ionic strength 0.1 M): Clear, thick, stiffer gel
- Appearance ([2]; conc. 1.46%, CaCl2 0.083 M, ionic strength 0.25 M): Clear, thick, stiffer gel
- Appearance ([2]; conc. 1.46%, MgCl2 0.083 M, ionic strength 0.25 M): Clear, thick, stiffer gel
- Appearance ([2]; conc. 1.47%, CaCl2 0.067 M, ionic strength 0.2 M): Clear, thick, stiffer gel
- Appearance ([2]; conc. 1.47%, MgCl2 0.067 M, ionic strength 0.2 M): Clear, thick, stiffer gel
- Appearance ([2]; conc. 1.48%, CaCl2 0.05 M, ionic strength 0.15 M): Clear, thick, stiffer gel
- Appearance ([2]; conc. 1.48%, KCl 0.05 M, ionic strength 0.5 M): Clear, thick, stiffer gel
- Appearance ([2]; conc. 1.48%, MgCl2 0.05 M, ionic strength 0.15 M): Clear, thick, stiffer gel
- Appearance ([2]; conc. 1.48%, NaCl 0.05 M, ionic strength 0.5 M): Clear, thick, stiffer gel
- Appearance ([2]; conc. 1.5%, CaCl2 0 M, ionic strength 0 M): Clear, thick gel
- Appearance ([2]; conc. 1.5%, KCl 0 M, ionic strength 0 M): Clear, thick gel
- Appearance ([2]; conc. 1.5%, MgCl2 0 M, ionic strength 0 M): Clear, thick gel
- Appearance ([2]; conc. 1.5%, NaCl 0 M, ionic strength 0 M): Clear, thick gel
- salt ionic strength increase that did not change the clear color of the solution (apparent stiffness increased) ([2]; depending on different salts, 1.5% peptide solutions): 0.25˜0.35 M
- rheological properties of solutions at pH 3.4 [3]: higher

— patent US10245299B2, “Autoassembling peptides for the treatment of pulmonary bulla” (3-D MATRIX, LTD., priority 2014, dated 2019)
